Assay results reported in the DeepSol protein solubility set.

Experiment: soluble on expression in E. coli; label from the status in PepcDB or PDB records

Soluble on expression in E. coli, not soluble:
LLWPNYMRPLPAFSILQFDPLTRPGGALRVERDTPVESRPVGEVACRFRTCYATEVLPLVLEALNYSVTGEGALLGLRLAMNCDGHLGELGLSRLRLHLAGERYISQMLYLCLLRNLESIQLIPLDAHGRPLDGVAGKPMSFRLTGERVQPVGFAEDEALIPYPLNTFRGYRYLQEYFAFQDKFLFVDVDGLDLLGALPEETLKQVRGLELRFDIRKSGIQRLHPTLENVKLYCTPVANLFRHDALPIRLDGKQDEYLLMPAEYSLEDCGVFSVEGVTGWRPGGLGYQAYVPFESFEHDPSFDVPEARPHYSVRQRTSLLHDGLDTYLSFGIRHPEQIETLSVELTCTNQNLPQRLRLGDICVACEGTPEFLGFRNITPATPSYAPPLNRDFLWKLISNMSLNYLSLANVDALKVILETYDLPRYYDQHAAKVSKRLLGGLKAVRHEHVDRLHRGLPLRGLRTELTIDPEGYIGEGDLFVFASVLNEFFALYASINSYHELRVRSTQGDVYQWKPRMG, MSLRIVKVRTFHVRPRWLFVAVETDKGVIGWGEAVVEGQARVVERMIGDLAEYLAGRDPRRIEHHWQGMYRGAFYRGGAVLCSAISGIDQALWDITARDLGVPVHALLGGAVRDSVRMYGHARGVTDAEFAHAARRSRSAGMTAIKFGLDGPVRALDTVEYVDRQVARVAAVREAVGPAFDIALDFHGRTSPAMARRLAERLSPMGPLFIEEPCLPENVDALAEIARATNVPIAAGERIFTKWGFRELLERRAVSVVQPDLCHAGGISEVRRIAAMAEAHYVALAPHNPLGPVSLAACLQVAASTPNFLIQEYLALDDGADLGAGILAVPFSVENGHIAVPTGPGLGIEVDEAQLMDRVYAGDWTTPRFTHQDGSHGDWEGHHHHHH, MTHLGGKVRSSGFLIPGSAPVSGTPPQGQGGLASSRVYEDSGGSLLSFSPMIHPNLAPLIAPSAYARLNLLNHCIFLEAFKEENSGQGLGGVQREVLFLKRDIIKQVIARIVAADSTLDLVNHGEPGREAPRRAQ, MLRLEEDEPSPGICDQLHEIVRSIGLLCYVACPPIPSEIIRKLAFHPPDKGATYRIELKSDPEKDLESVRDCHDEPVQLVVRDRVHPEVKVFSVTTSEDSHLVCVKCSPNCYSKNPEVANQVVLFCQSSSADLGSFLQPNSMNFSTFANLFETDVYAFDYSGYGFSSGTQSEKNMYADVRAVYEHILKTRPDKKIVVIGYSIGTTAAVDLAASNPDRLVGVVLIAPLTSALRMFCNNPDKETTCIDKICHINTRVLICHGDHDQRIPMTHGMALYENLKNPVPPLIVHGANHHSIISGEYIEVFTRIASFMRNETLLSCRANQIESSSSKKFKHE, GVVNVVVPQYVNCPDVCHWESAIMIYLMGELVERGLQDKVVFVTIGVNPYYETIEDGKRYMESVAGDYLDKGVKWIWVLDDVEKQEELWNMFGIAVSLYCVKNDGSIIDELTYDDYLKLEESGECSFVGVNHTAGFIIVDGDGVFRYFMSPTEDGWKRGQRQVAETILQYILKLVEERK, MVIEVPQTERVNDVDVFLSTQDGQIQRPKGPNCRHPVRQKCTNCLPVDPFDEEYLKEKDIKHMSFHAHVRKLLGSQGKGTTLKKPLENFRCSLKPNCDAHKPFPKGICTKCKPQVVTLNRQKFRHVDNIQIENQELVNQFLDYWRLSGHQRVGFLIGQYQPHLEVPLGIKATVAAIYEPPQHCREDGIEFLEDKNQKTIDNLLEMLGLQRVGWIFTDCWTANSAEGTVHYTRHKDSFFLSAEECITAAMLQNQHPNITEYSMDRHYGSKFVTVVASGDESMHVNFHGYQVSNQCAAMVEADILCPTLYTPELAYVRETPLSEEHYITDVQFSMKNEYGAEVMKNGRPLPVEYLLVDVPAGMPKEPHYTFHVGTSNKSKSAKFNVENRQAIGQLQGGANLIQYSSEFSTNQFLEQATNFHFLLYLVTNDQVQISDEWMKRLCDAVKAQDRGTAMEWAQECEDWHQLMALAHANGGSGNDDIPVIPNGDPFSGSSSGGSRGAVWSCGHCTFQNEAGRQDCSMCGLPAAD, MDFQHWLHEAVNQLRDSDSPRRDAEILLEYVTGKGRTYIMAFGETPLTDVQQQQLADLLQRRKQGEPIAYLTGLREFWSLPLFVSPATLIPRPDTECLVEQALARLPVKTCRILDLGTGTGAIALALACERPDCEVTAVDRMPDAVALAIRNAEHLAIRNVRILQSCWFSALSGQQFDMIVSNPPYIDAQDPHLSEGDVRFEPRSALVADENGMADLTHIIDNARQMLTPGGFLLLEHGWQQGEAVRAVFRRSGYSDVETCRDYGGNERVTCGRFTP, MGSDKIHHHHHHMDIENMKAFNKVAELKSISAAANELHHLQSNMSNKIKNIEKQFQTQLFFRHSNGVELTKEGEKIYQQFKKMILLWEETIDIINNEEETISIGITQSSLPMEFNTIIKEFYQQFPNKKLSIVSGSTSELIPKIANRELTIAYVAELEKENLFQDSQIISQTLSWDKLVFAGNTAGKSVQKILAEERLYVFSKQCYSYRALAALINDFNIPNVSISEINIPETLVEICNNELGVGIIPESIALNYHFLNYETLPTEYAALRKTLIYHADHTISNGEKWLIEKSKPAFKS, MGSDKIHHHHHHMADAETIRSYDQLAREQAAFQRHLQPTAIYRLVETFFHPGRPTIDIGSGSGRDVAWLNQHGYQAIGLEPSAGMIAEARAAYAGIEIRQGALPDLAGIADASFDNVLCVAVLMHLPAAELIGAVINLARILRPGGRLIVSYRTPPPEGERAHDGRLYTVIPPARLMLLLESSGLQILFSEDLPDPHRPSIRWFNMVAEKSDRDVSRGLERVGSVLAHDRKTATYKLALLRALCIIARNAFNLVEWSSDVVYVLLRAIATQWLIFYWPLLTSSEFIAQIRGEHPLSPKPIAFRPAITSLAKQLGGAAGLYNVLRILEEDPHRYDDILKLIANTIRKGPVTYSGSIHSPIFSYRPGKSDTFGWVAVPIDIWLDICRFNHWIEDSIVLRWAYLTDELNRTADPGRYLSLLVAKPLHERDTQEVRQALNRSPELFCVWTGQRLGHGYEVDHVIPYSVWGNNDLWNLLPAHPRINQTKRDALPARSILLARREAIIDYWQRYAQIDVFQPRFAVQIHRALGCNLRHADWPKLAFAGLEEVVERTAIVRGLPRWSP, MEINTIIGNNLKKIRQEKKLTLDELAGITGVSKGMLSQIEKGTTNPTINTIWKISNGLNVPYTYLLEDDYVKENPVVKKTETVTQHSEDHSYRVFNYYSDNQERNFELFQFELDPGKKYQAVGHSKRSTEYVMVIQGALALEVGGQRYLLPKDAAMYFDANQVHTYINDGTEKVQAVVINYYT

Soluble on expression in E. coli, soluble:
MSLICKRFALVGSGFIGQVHAASLARHEGSALTMVADAAPERAQALAARYGARAVTVSEAIHSDAIDAVLIASSTPSHAELLEAAARAGKAVYCEKPIDLSLARAREVVERVLPLNVPVTVGFNRRFDSSHQQLRRQLEQGLIGRVELVQMVCRASSMPPLDYLRSSGGQMRDQAIHFFDLLRFLTGDEVRTVAAMGAALALPDIAEFGDVDTSILMMQMRGGALAQLDNTRRTGHGYDERITLLGAEGALESGSQSPAGPTLWRGNQRIEPGLWPDWFSRVQGSYYQHLDAFIRSLNGETVADLPGLLDGLQAQAIAEAAVQSLQHGQFVAVDDEGHHHHHH, ADCSSDLTSGISTKRIYYVAPNGNSSNNGSSFNAPMSFSAAMAAVNPGELILLKPGTYTIPYTQGKGNTITFNKSGKDGAPIYVAAANCGRAVFDFSFPDSQWVQASYGFYVTGDYWYFKGVEVTRAGYQGAYVIGSHNTFENTAFHHNRNTGLEINNGGSYNTVINSDAYRNYDPKKNGSMADGFGPKQKQGPGNRFVGCRAWENSDDGFDLFDSPQKVVIENSWAFRNGINYWNDSAFAGNGNGFKLGGNQAVGNHRITRSVAFGNVSKGFDQNNNAGGVTVINNTSYKNGINYGFGSNVQSGQKHYFRNNVSLSASVTVSNADAKSNSWDTGPAASASDFVSLDTSLATVSRDNDGTLPETSLFRLSANSKLINAGTKESNISYSGSAPDLGAFERN, MNREKLMKMANTVRTGGKGTVRRKKKAVHKTTTTDDKRLQSTLKRVGVNSIPAIEEVNIFKDDVVIQFINPKVQASIAANTWVVSGTPQTKKLQDILPQIISQLGPDNLDNLKKLAEQFQKQAPGAGDVPATIQEEDDDDDVPDLVVGETFETPATEEAPKAAAS, MRSRVLWGAARWLWPRRAVGPARRPLSSGSPPLEELFARGGPLRTFLERQAGSEAHLKVRRPELLAVIKLLNEKEQELRETEHLLHDENEDLRKLAENEITLCQKEITQLKHQIILLLVPSEETDENDLILEVTAGVGGQEAMLFTSEIFDMYQQYAAFKRWHFETLEYFPSELGGLRHASASIGGSEAYRHMKFEGGVHRVQRVPKTEKQGRVHTSTMTVAILPQPTEINLVINPKDLRIDTKRASGAGGQHVNTTDSAVRIVHLPTGVVSECQQERSQLKNKELAMTKLRAKLYSMHLEEEINKRQNARKIQIGSKGRSEKIRTYNFPQNRVTDHRINKTLHDLETFMQGDYLLDELVQSLKEYADYESLVEIISQKV, MGHHHHHHSHMEKALLGACDCTQIVKPSGVHLKLVLRFSDFGKAMFKPMRQQRDEETPVDFFYFIDFQRHNAEIAAFHLDRILDFRRVPPTVGRIVNVTKEILEVTKNEILQSVFFVSPASNVCFFAKCPYMCKTEYAVCGNPHLLEGSLSAFLPSLNLAPRLSVPNPWIRSYTLAGKEEWEVNPLYCDTVKQIYPYNNSQRLLNVIDMAIFDFLIGNMDRHHYEMFTKFGDDGFLIHLDNARGFGRHSHDEISILSPLSQCCMIKKKTLLHLQLLAQADYRLSDVMRESLLEDQLSPVLTEPHLLALDRRLQTILRTVEGCIVAHGQQSVIV, MSLKITIRDIAKQAEVSISTVSFVINGKGEKMAISPAVIKKVQDVAQKLQYKPSMIASSLRTGKTRSIGLIVEDISNQFFADLARVIEDEAKNINYRVFYCSTGDDNDRSEELVQSLLQANVEGFIITPTRNLEKTISQLLKLQKPVVLIDRYFANQKVSHVVMDNYEGSYSAVKFLISKGRKNIAVVNNKSGMIQMKLREKGYVEALKEEGIYNEKYTLLLDYHSSEKTRIEEIINFFNQNKEIDAVLFCANYMGLAGLQAFRTLNYKIPNDISVISFDDHDSFKLHTPTISVIAQPIEDIAVESIQLLMSQMTNFEDFKIEKVLKKGTLIIRESVEGHHHHHH, MISCFNRQCPTGTISYTVRAGDTLYLIAGRFNTTVEAILAANPGIVPERLYIGQVICVPYAQPPQPACPIGTSPYEIKSGDTLSKIAAKFNTTVGDILNANPGIIPEKLYVGQKICIPQPKSENPGCPTMNYYVIQKGDTLPAIAKIFNVTVQQLINANPGINPNALYVGQVICIPVAPSSVRIIVSIAAKTLSLYRDGRLVKSYPVATGKPTTPTPRGTFTIINKQVNPGGPFGTRWMGLSQPHYGIHGTNNPASIGTAASNGCIRMYNEDVNELFNLVSVGTPVTIY, MSLNIAIFINTPAQFHFYRNIAKELKNRGHFVELLFRDYGENLEIAKELGLNPTVYAKPSDSKYGKILSLPSDVLRATKLLKKFKPDIITGFGVYDAFSSFLVNVPCIVFNDSEPFINSSYAVQFKLFMPFTNVLITPEAFQPNFGTKHINIPSYKEFSYLHPNYYTPKEDIFELIGIEKNEEYILLRFNAFDAVHDAGITGFTKENKIKLVKELEKHCKVFISSETQVPKEIEKNILKTPKSRIHDVLYYAKILITDTQTMTTEAALLGTPALRYNKFVGGKDMSNFIELEKNYGLIFNYQNSEKIFERAFELLNTENLKEIWKKKRELLLKNKIDSTSFMVWFFENYPESFEKMKTDVTIYENFNDNLAKIKGEGHHHHHH, GSHMLEDPQRRIRRPFSVAEVEALVQAVEKLGTGRWRDVKLCAFEDADHRTYVDLKDKWKTLVHTAKISPQQRRGEPVPQELLNRVLNAHGYWTQQQMQQLQQNV
